In paper PMC2710002, “KCNE1 and KCNE3 β-Subunits Regulate Membrane Surface Expression of Kv12.2 K^+ Channels In Vitro and Form a Tripartite Complex In Vivo” (PLoS ONE, 2009):

Target: the molecule itself
Test: native gel or EMSA; blue native PAGE (4-16% NativePAGE Novex Bis-Tris, G-250, pH 7, 4°C) of proteins immunoprecipitated from digitonin lysate of mouse brain; blot with anti-Kv12.2; size of the Kv12.2 complex

B1: Kv12.2 channel (natural protein, mouse (endogenous in mouse brain), UniProt Q9WVJ0 1-1095, looked up)
chain: MPAMRGLLAPQNTFLDTIATRFDGTHSNFVLGNAQVAGLFPVVYCSDGFCDLTGFSRAEVMQRGCACSFLYGPDTSELVRQQIRKALDEHKEFKAELILYRKSGLPFWCLLDVIPIKNEKGEVALFLVSHKDISETKNRGGPDNWKERGGGRRRYGRAGSKGFNANRRRSRAVLYHLSGHLQKQPKGKHKLNKGVFGEKPNLPEYKVAAIRKSPFILLHCGALRATWDGFILLATLYVAVTVPYSVCVSTAREPSAARGPPSVCDLAVEVLFILDIVLNFRTTFVSKSGQVVFAPKSICLHYVTTWFLLDVIAALPFDLLHAFKVNVYVGAHLLKTVRLLRLLRLLPRLDRYSQYSAVVLTLLMAVFALLAHWVACVWFYIGQQEIESSESELPEIGWLQELARRLETPYYLVSRSPDGGNSSGQSENCSSSSSSSGSGGGRGSEANGTGLELLGGPSLRSAYITSLYFALSSLTSVGFGNVSANTDTEKIFSICTMLIGALMHAVVFGNVTAIIQRMYARRFLYHSRTRDLRDYIRIHRIPKPLKQRMLEYFQATWAVNNGIDTTELLQSLPDELRADIAMHLHKEVLQLPLFEAASRGCLRALSLALRPAFCTPGEYLIHQGDALQALYFVCSGSMEVLKGGTVLAILGKGDLIGCELPQREQVVKANADVKGLTYCVLQCLQLAGLHESLALYPEFAPRFSRGLRGELSYNLGAGGVSAEVDTSSLSGDNTLMSTLEEKETDGEQGHTVSPAPADEPSSPLLSPGCTSSSSAAKLLSPRRTAPRPRLGGRGRPSRAGVLKPEAGPSAHPRSLDGLQLPPMPWNVPPDLSPRVVDGIEDGCSSDQPKFSFRVGQSGPECSSSPSPGTESGLLTVPLGPSEARNTDTLDKLRQAVMELSEQVLQMREGLQSLRQAVQLILVPQGEGQCPRGSGEEPCPATASGLLQPLRVDTGASSYCLQPPAGSVLSGTWPHPRPGQPPPLMAPWPWGPPASQSSPWPRATALWTSTSDSEPPGSGDLCSEPSTPASPPPSEEGARTGTPAPVSQAEATSTGEPPPGPGGRALPWDPHSLEMVLIGCHGPGTVQWTQEEGTGV
notes: Kv12.2 (ELK2, KCNH3) voltage-gated potassium channel alpha subunit, mouse, endogenous in brain; about 120 kDa monomer on a denaturing gel, about 500 kDa complex on a native gel; also called ELK2; KCNH3; source: endogenous, mouse brain membrane lysate (0.5% Igepal) or whole mouse brain lysate (1% digitonin)
stoichiometry N: 4
